Molecular target: recombinant TSHR-His (UniProt P16473 21-414)
Assay: SPR; 5 mM Mg2+; kon 7.686e4 M-1s-1, koff 9.023e-4 s-1; 25 C; Flow: DPBS, 5 mM MgCl2, 4.5 g/L glucose, 0.1 mg/mL yeast tRNA, 1 mg/mL BSA, 4 C 30 min; SPR: DPBS, 5 mM Mg2+, pH 7.4, 25 C
Conditions: protein: commercial; tags: His; label: FAM (flow); biotin (pull-down); stem-loops (NUPACK predicted)

recombinant TSHR-His, sequence (P16473 21-414): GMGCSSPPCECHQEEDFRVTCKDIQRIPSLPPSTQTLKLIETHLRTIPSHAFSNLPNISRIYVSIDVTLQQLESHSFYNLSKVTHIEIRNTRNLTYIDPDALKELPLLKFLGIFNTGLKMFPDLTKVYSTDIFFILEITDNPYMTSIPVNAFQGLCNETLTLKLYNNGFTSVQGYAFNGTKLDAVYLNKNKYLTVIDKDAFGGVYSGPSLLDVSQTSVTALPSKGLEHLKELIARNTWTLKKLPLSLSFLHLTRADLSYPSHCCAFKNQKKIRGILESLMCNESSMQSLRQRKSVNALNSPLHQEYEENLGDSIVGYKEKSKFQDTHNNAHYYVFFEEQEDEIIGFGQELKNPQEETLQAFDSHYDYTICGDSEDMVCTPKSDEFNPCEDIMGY

B1: YC3 (structured_DNA)
DNA: ACCGACCGTGCTGGACTCAGATGAACAATCGATGGAAGATTGGGTCGCACCGGCCTCTTTCACTATGAGCGAGCCTGGCG
Kd: 11.7 nM

Source: paper PMC12822413, “TSHR‐Targeting Nucleic Acid Aptamer Treats Graves' Ophthalmopathy via Novel Allosteric Inhibition”
